Experimental data reported in patent publication US20230416382A1 (Five Prime, published 2023).
Several values for one entry are separate records, joined by “and”; a condition that tells them apart may be missing. Equal values may be shown once.

T1: human CX3CR1 (human, UniProt P49238 1-355)
T1 construct: whole, on cells; also called hCX3CR1; huCX3CR1
T1 sequence (looked up): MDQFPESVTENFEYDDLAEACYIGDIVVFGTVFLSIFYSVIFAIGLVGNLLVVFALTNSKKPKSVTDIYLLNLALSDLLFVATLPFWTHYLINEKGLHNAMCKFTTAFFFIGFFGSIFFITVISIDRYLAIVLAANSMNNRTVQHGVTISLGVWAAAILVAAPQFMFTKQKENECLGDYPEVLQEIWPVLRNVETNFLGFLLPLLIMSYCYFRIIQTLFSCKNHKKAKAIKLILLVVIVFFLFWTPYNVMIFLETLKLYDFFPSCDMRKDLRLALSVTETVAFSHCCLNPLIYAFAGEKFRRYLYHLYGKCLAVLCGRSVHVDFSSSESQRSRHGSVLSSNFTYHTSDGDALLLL

T2: human CCR4 (human, UniProt P51679 1-360)
T2 construct: whole, on cells; also called hCCR4; huCCR4
T2 sequence (looked up): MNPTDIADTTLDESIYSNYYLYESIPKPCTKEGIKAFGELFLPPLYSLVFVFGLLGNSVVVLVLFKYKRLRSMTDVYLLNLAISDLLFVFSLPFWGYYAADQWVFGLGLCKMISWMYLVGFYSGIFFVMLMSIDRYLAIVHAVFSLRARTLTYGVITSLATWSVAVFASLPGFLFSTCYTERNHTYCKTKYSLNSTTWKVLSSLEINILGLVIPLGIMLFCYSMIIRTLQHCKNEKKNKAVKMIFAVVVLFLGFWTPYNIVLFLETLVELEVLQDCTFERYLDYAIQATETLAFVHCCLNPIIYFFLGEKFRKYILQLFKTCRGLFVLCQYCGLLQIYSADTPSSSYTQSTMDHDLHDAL

T3: mCCR8
T3 construct: also called murine CCR8; mouse CCR8
T3 receptor: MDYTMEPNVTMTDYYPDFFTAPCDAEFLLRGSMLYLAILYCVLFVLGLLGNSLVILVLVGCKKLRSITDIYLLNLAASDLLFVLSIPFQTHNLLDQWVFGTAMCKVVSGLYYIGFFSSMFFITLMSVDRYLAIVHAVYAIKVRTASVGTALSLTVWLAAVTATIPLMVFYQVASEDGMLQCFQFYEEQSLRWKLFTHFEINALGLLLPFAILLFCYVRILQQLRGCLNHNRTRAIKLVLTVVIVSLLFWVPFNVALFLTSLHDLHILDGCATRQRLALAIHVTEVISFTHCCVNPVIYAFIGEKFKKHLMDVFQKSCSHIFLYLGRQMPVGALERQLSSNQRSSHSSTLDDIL


Columns and labels:
human CCR8 [1] = target: T4, human CCR8 (human, UniProt P51685 1-355); assay: flow cytometry on HEK293 cells expressing human CCR8, anti-hIgG BV421 secondary
T4 construct: also called hCCR8; huCCR8
Description: (§1) To determine the binding potency of anti-CCR8 antibodies, a flow based binding study was performed. HEK293 were transfected using expression vectors containing human CCR8 (hCCR8), cynomolgus CCR8 (cyCCR8) or murine CCR8 (mCCR8). Anti-CCR8 antibodies were tittered in the presence of hCCR8_293 (FIG. 8A), cyCCR8_293 cells (FIG. 8B) or mCCR8_293 cells (FIG. 8C). The cells were subsequently stained with an anti-hIgG secondary antibody conjugated to Brilliant Violet 421 (Biolegend) to visualize bound anti-CCR8 antibodies. The geometric mean fluorescence intensity of each sample was used to determine the binding EC50 of each antibody with Prism v.8 (Table 4; Graphpad).

human CCR8 [2] = target: T4, human CCR8; assay: cell-based or functional assay
human CX3CR1 [3] = target: T1, human CX3CR1; assay: flow cytometry at 10 ug/ml on dye-barcoded mixed 293 lines, anti-hIgG BV421 secondary
Text: (§2) To assess antibody binding selectivity, the cell lines were first labelled with unique combinations of fluorescent dyes to permit antibody staining of all cell lines in a single tube. hCCR8_293 cells were labeled with Cell Trace Far Red (Invitrogen). hCCR4_293 cells were labeled with carboxyfluorescein succinimidyl ester (Invitrogen). hCX3CR1_293 cells were labeled with both Cell Trace Far Red and carboxyfluorescein succinimidyl ester. Parental 293 cells were not labeled with dye. Anti-CCR8 antibodies were prepared at a concentration of 10 ug/ml and incubated with labeled hCCR8_293, hCCR4_293, hCX3CR1_293 or parental 293 cells that were pre-mixed at an equivalent ratio. The cells were washed and then subsequently stained with an anti-hIgG secondary antibody conjugated to Brilliant Violet 421 (Biolegend) to visualize bound antibodies. To determine the selectivity of binding, the individual cell lines were first identified in each sample and the geometric median fluorescence intensity of the secondary antibody was obtained for each population (FIG. 9B). […]

human CCR4 [4] = target: T2, human CCR4; assay: as above
Text: as §2

cynomolgus CCR8 [5] = target: T5, cynomolgus CCR8 (Macaca fascicularis (cynomolgus), UniProt O97665 1-356 (rhesus entry)); assay: flow cytometry on HEK293 cells expressing cynomolgus CCR8, anti-hIgG BV421 secondary
T5 construct: On transfected HEK293 cells (cyCCR8_293); also called cyCCR8; Cyno CCR8
Description: as §1

mCCR8 = target: T3, mCCR8; assay: flow cytometry titration on mCCR8_293 (HEK293) cells, anti-hIgG BV421 secondary
Description: as §1

human CCR8 [6] = target: T4, human CCR8; assay: cell-based or functional assay; remark: listed apart in the source
cynomolgus CCR8 [7] = target: T5, cynomolgus CCR8; assay: flow cytometry titration on cyCCR8_293 (HEK293) cells, anti-hIgG BV421 secondary
Description: as §1

human CX3CR1 [8] = target: T1, human CX3CR1; assay: flow cytometry on mixed dye-labelled HEK293 transfectants, signal compared with parental 293
Text: as §2

human CCR4 [9] = target: T2, human CCR4; assay: as above
Text: as §2

T5 sequence (O97665 other isoform, or with tags, fused parts or gaps): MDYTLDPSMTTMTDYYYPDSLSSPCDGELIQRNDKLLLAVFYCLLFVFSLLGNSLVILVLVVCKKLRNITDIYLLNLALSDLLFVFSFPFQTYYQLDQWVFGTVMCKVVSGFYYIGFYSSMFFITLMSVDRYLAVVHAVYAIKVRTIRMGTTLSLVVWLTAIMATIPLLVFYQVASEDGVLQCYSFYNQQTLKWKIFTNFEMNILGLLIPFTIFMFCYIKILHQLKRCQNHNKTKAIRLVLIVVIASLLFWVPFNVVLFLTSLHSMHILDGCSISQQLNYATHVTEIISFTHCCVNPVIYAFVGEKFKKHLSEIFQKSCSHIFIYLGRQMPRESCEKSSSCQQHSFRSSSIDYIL
T4 sequence (P51685 whole entry): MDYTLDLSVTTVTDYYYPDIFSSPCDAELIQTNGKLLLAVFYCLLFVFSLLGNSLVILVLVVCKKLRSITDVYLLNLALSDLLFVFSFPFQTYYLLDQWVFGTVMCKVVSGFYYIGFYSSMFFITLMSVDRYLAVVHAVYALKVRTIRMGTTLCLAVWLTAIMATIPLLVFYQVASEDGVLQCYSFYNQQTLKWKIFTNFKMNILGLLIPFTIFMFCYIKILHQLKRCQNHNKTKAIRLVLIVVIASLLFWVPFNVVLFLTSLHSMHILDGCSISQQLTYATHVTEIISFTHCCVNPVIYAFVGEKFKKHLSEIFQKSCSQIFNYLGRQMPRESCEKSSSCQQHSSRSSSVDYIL

Binder | EC50 (human CCR8 [1]) | FcR reporter activation EC50 (Hut78 target cells, Jurkat FcγRIIIa NFAT-luciferase) (human CCR8 [2]) | binding result (human CX3CR1 [3]) | binding result (human CCR4 [4]) | EC50 (cynomolgus CCR8 [5]) | EC50 (read off the curve) (cynomolgus CCR8 [7]) [µg/mL] | binding result (human CX3CR1 [8]) | binding result (human CCR4 [9]) | binding result (mCCR8) | NK Killing EC50 (primary human NK cells, TALL1 target cells) (human CCR8 [6])
I2676 (antibody, V domains shown, also called anti-CCR8 antibody clone I2676) VH: QVQLVESGGGVVQPGRSLRLSCAASGFTFSSYAMHWVRQAPGKGLEWVAVISYDGSNKYYADSVKGRFTISRDNSKNTLYLQMNSLRAEDTAVYYCARVRDRAFDIWGQGTMVTVSS VL: QAVLTQPASLSASPGASASLTCTLRSGINVGTYRIYWYQQKPGSPPQYLLRYKSDSDKQQGSGVPSRFSGSKDASANAGILLISGLQSEDEADYYCMIWHSSARNWVFGGGTKLTVL | 0.18 µg/mL and 1.2 nM | 0.00592 µg/mL and 39.4 pM | no binding (tested: 10 ug/ml) | no binding (tested: 10 ug/ml) | 0.3 µg/mL and 2 nM |  |  |  | no binding (tested: about 30 ug/ml (log 1.5)) | 0.000856 µg/mL and 6 pM
I3144 (antibody, V domains shown, also called anti-CCR8 antibody clone I3144) VH: QVQLVESGGGVVQPGRSLRLSCAASGFTFSSYAMHWVRQAPGKGLEWVAVISYDGSNKYYADSVKGRFTISRDNSKNTLYLQMNSLRAEDTAVYYCARVRDRAFDIWGQGTMVTVSS VL: QAVLTQPASLSASPGASASLTCTLRSGINVGTYRIYWYQQKPGSPPQYLLRYKSDSDKQQGSGVPSRFSGSKDASANAGILLISGLQSEDEADYYCMIWHSSARNWVFGGGTKLTVL | 4.6 nM and 0.69 µg/mL | 0.0091 µg/mL and 60.8 pM | no binding (tested: 10 ug/ml) | no binding (tested: 10 ug/ml) |  | ~1 |  |  |  | 
I2677 (antibody, V domains shown, also called anti-CCR8 antibody clone I2677) VH: not shown VL: QAVLTQPASLSASPGASASLTCTLRSGINVGTYRIYWYQQKPGSPPQYLLRYKSDSDKQQGSGVPSRFSGSKDASANAGILLISGLQSEDEADYYCMIWHSSARNWVFGGGTQLTVL | 0.13 µg/mL and 0.9 nM | 0.116 µg/mL and 772 pM |  |  | 9.6 µg/mL and 64 nM |  | no binding (tested: 10 ug/ml) | no binding (tested: 10 ug/ml) |  | 

Second part, led by results:

EC50 (human CCR8 [1]) | FcR reporter activation EC50 (Hut78 target cells, Jurkat FcγRIIIa NFAT-luciferase) (human CCR8 [2]) | binding result (human CX3CR1 [3]) | binding result (human CCR4 [4]) | EC50 (cynomolgus CCR8 [5]) | EC50 (read off the curve) (cynomolgus CCR8 [7]) [µg/mL] | binding result (human CX3CR1 [8]) | binding result (human CCR4 [9]) | Binder | binding result (mCCR8) | NK Killing EC50 (primary human NK cells, TALL1 target cells) (human CCR8 [6])
2.43 µg/mL and 16.2 nM | 0.569 µg/mL and 3790 pM | no binding (tested: 10 ug/ml) | no binding (tested: 10 ug/ml) |  |  |  |  | I3145 (antibody, V domains shown, also called anti-CCR8 antibody clone I3145) VH: EVQLVETGGGLIQPGGSLRLSCAASGFTVSSNYMSWVRQAPGKGLEWVSVIYSGGSTYYADSVKGRFTISRDNSKNTLYLQMNSLRAEDTAVYYCARGLGSADYWGQGTLVTVSS VL: DVVMTQSPLSLPVTLGQPASISCRSSQSLLHSNGNTYLNWFQQRPGQSPRRLIYKVSIRDSGVPDRFSGSGSGTDFTLKISRVEAEDVGLYYCMQSTQWPITFGGGTKLEIK |  | 
0.16 µg/mL and 1.1 nM | 0.00455 µg/mL and 30.4 pM |  |  |  |  |  |  | I3213 (antibody, V domains shown, also called anti-CCR8 antibody clone I3213) VH: QVQLVESGGGVVQPGRSLRLSCAASGFTFSSYAMHWVRQAPGKGLEWVAVISYDGSNKYYADSVKGRFTISRDNSKNTLYLQMNSLRAEDTAVYYCARVRDRAFDIWGQGTMVTVSS VL: QAVLTQPASLSASPGASASLTCTLRSGINLGTYRIYWYQQKPGSPPQYLLRYKSDSDKQQGSGVPSRFSGSKDASANAGILLISGLQSEDEADYYCMIWHSSARNWVFGGGTKLTVLG |  | 0.000602 µg/mL and 4.2 pM
0.2 µg/mL and 1.3 nM | 32.1 pM and 0.00482 µg/mL |  |  |  |  |  |  | I3210 (antibody, V domains shown, also called anti-CCR8 antibody clone I3210) VH: QVQLVESGGGVVQPGRSLRLSCAASGFTFSSYAMHWVRQAPGKGLEWVAVISYDGSNKYYADSVKGRFTISRDNSKNTLYLQMNSLRAEDTAVYYCARVRDRAFDIWGQGTMVTVSS VL: QAVLTQPASLSASPGASASLTCTLRSGINVGTYRIYWYQQKPGSPPQYLLRIIKSGSSDKQQGSGVPSRFSGSKDASANAGILLISGLQSEDEADYYCMIWHSSARNWVFGGGTKLTVLG |  | 0.00065 µg/mL and 4.5 pM
